Measured values from the Human Domainome abundance scans (Beltran et al. 2025).
± gives the uncertainty stated by the source.

B1: Receptor-interacting serine/threonine-protein kinase 2, residues 438 to 518; numbered along this chain, O43353 (parent)
chain: QWIQSKREDIVNQMTEACLNQSLDALLSRDLIMKEDYELVSTKPTRTSKVRQLLDTTDIQGEEFAKVIVQKLKDNKQMGLQ

Variants of: B1
Assay: abundance fitness (aPCA) (normalised: wild type 0, dead -1); higher = more abundant; growth selection in yeast, the domain comes from the species named
Conditions: Homo sapiens

In order of rising abundance fitness:
1. QWIQSKREDIVNQMTEACLNQSLDALLSRDLIMKIDYELVSTKPTRTSKVRQLLDTTDIQGEEFAKVIVQKLKDNKQMGLQ [E35I]  -1.12 ± 0.47
2. QWIQSKREDIVNQMTEACLNQSLDALLSRDLIMKEDMELVSTKPTRTSKVRQLLDTTDIQGEEFAKVIVQKLKDNKQMGLQ [Y37M]  -0.788 ± 0.2
3. QWIQSKREDIVNQMTEACLNQSLDALLSRDLIMKMDYELVSTKPTRTSKVRQLLDTTDIQGEEFAKVIVQKLKDNKQMGLQ [E35M]  -0.703 ± 0.11
4. QWIQSKREDIVNQMTEACLNQSLDALLSRDLIMKFDYELVSTKPTRTSKVRQLLDTTDIQGEEFAKVIVQKLKDNKQMGLQ [E35F]  -0.693 ± 0.19
5. QWIQSKREDIVNQMTEACLNQSLDALLSRDLIMKEDHELVSTKPTRTSKVRQLLDTTDIQGEEFAKVIVQKLKDNKQMGLQ [Y37H]  -0.568 ± 0.23
6. QWIQSKREDIVNQMTEACLNQSLDALLSRDLIMKEDCELVSTKPTRTSKVRQLLDTTDIQGEEFAKVIVQKLKDNKQMGLQ [Y37C]  -0.547 ± 0.21
7. QWIQSKREDIVNQMTEACLNQSLDALLSRDLIMKNDYELVSTKPTRTSKVRQLLDTTDIQGEEFAKVIVQKLKDNKQMGLQ [E35N]  -0.521 ± 0.17
8. QWIQSKREDIVNQMTEACLNQSLDALLSRDLIMKEDGELVSTKPTRTSKVRQLLDTTDIQGEEFAKVIVQKLKDNKQMGLQ [Y37G]  -0.519 ± 0.06
9. QWIQSKREDIVNQMTEACLNQSLDALLSRDLIMKYDYELVSTKPTRTSKVRQLLDTTDIQGEEFAKVIVQKLKDNKQMGLQ [E35Y]  -0.514 ± 0.21
10. QWIQSKREDIVNQMTEACLNQSLDALLSRDLIMKEDDELVSTKPTRTSKVRQLLDTTDIQGEEFAKVIVQKLKDNKQMGLQ [Y37D]  -0.471 ± 0.17
11. QWIQSKREDIVNQMTEACLNQSLDALLSRDLIMDEDYELVSTKPTRTSKVRQLLDTTDIQGEEFAKVIVQKLKDNKQMGLQ [K34D]  -0.448 ± 0.24
12. QWIQSKREDIVNQMTEACLNQSLDALLSRDLIMKEDKELVSTKPTRTSKVRQLLDTTDIQGEEFAKVIVQKLKDNKQMGLQ [Y37K]  -0.412 ± 0.19
13. QWIQSKREDIVNQMTEACLNQSLDALLSRDLIMKVDYELVSTKPTRTSKVRQLLDTTDIQGEEFAKVIVQKLKDNKQMGLQ [E35V]  -0.408 ± 0.097
14. QWIQSKREDIVNQMTEACLNQSLDALLSRDLIMKEDIELVSTKPTRTSKVRQLLDTTDIQGEEFAKVIVQKLKDNKQMGLQ [Y37I]  -0.401 ± 0.27
15. QWIQSKREDIVNQMTEACLNQSLDALLSRDLIMGEDYELVSTKPTRTSKVRQLLDTTDIQGEEFAKVIVQKLKDNKQMGLQ [K34G]  -0.357 ± 0.091
16. QWIQSKREDIVNQMTEACLNQSLDALLSRDLIMMEDYELVSTKPTRTSKVRQLLDTTDIQGEEFAKVIVQKLKDNKQMGLQ [K34M]  -0.312 ± 0.16
17. QWIQSKREDIVNQMTEACLNQSLDALLSRDLIMKPDYELVSTKPTRTSKVRQLLDTTDIQGEEFAKVIVQKLKDNKQMGLQ [E35P]  -0.304 ± 0.096
18. QWIQSKREDIVNQMTEACLNQSLDALLSRDLIMKGDYELVSTKPTRTSKVRQLLDTTDIQGEEFAKVIVQKLKDNKQMGLQ [E35G]  -0.256 ± 0.07
19. QWIQSKREDIVNQMTEACLNQSLDALLSRDLIMKWDYELVSTKPTRTSKVRQLLDTTDIQGEEFAKVIVQKLKDNKQMGLQ [E35W]  -0.252 ± 0.12
20. QWIQSKREDIVNQMTEACLNQSLDALLSRDLIMWEDYELVSTKPTRTSKVRQLLDTTDIQGEEFAKVIVQKLKDNKQMGLQ [K34W]  -0.243 ± 0.092
21. QWIQSKREDIVNQMTEACLNQSLDALLSRDLIMVEDYELVSTKPTRTSKVRQLLDTTDIQGEEFAKVIVQKLKDNKQMGLQ [K34V]  -0.242 ± 0.13
22. QWIQSKREDIVNQMTEACLNQSLDALLSRDLIMKQDYELVSTKPTRTSKVRQLLDTTDIQGEEFAKVIVQKLKDNKQMGLQ [E35Q]  -0.233 ± 0.1
23. QWIQSKREDIVNQMTEACLNQSLDALLSRDLIMKADYELVSTKPTRTSKVRQLLDTTDIQGEEFAKVIVQKLKDNKQMGLQ [E35A]  -0.223 ± 0.085
24. QWIQSKREDIVNQMTEACLNQSLDALLSRDLIMCEDYELVSTKPTRTSKVRQLLDTTDIQGEEFAKVIVQKLKDNKQMGLQ [K34C]  -0.199 ± 0.22
25. QWIQSKREDIVNQMTEACLNQSLDALLSRDLIMFEDYELVSTKPTRTSKVRQLLDTTDIQGEEFAKVIVQKLKDNKQMGLQ [K34F]  -0.191 ± 0.17
26. QWIQSKREDIVNQMTEACLNQSLDALLSRDLIMKEDLELVSTKPTRTSKVRQLLDTTDIQGEEFAKVIVQKLKDNKQMGLQ [Y37L]  -0.186 ± 0.068
27. QWIQSKREDIVNQMTEACLNQSLDALLSRDLIMKDDYELVSTKPTRTSKVRQLLDTTDIQGEEFAKVIVQKLKDNKQMGLQ [E35D]  -0.142 ± 0.14
28. QWIQSKREDIVNQMTEACLNQSLDALLSRDLIMKTDYELVSTKPTRTSKVRQLLDTTDIQGEEFAKVIVQKLKDNKQMGLQ [E35T]  -0.118 ± 0.12
29. QWIQSKREDIVNQMTEACLNQSLDALLSRDLIMKEDAELVSTKPTRTSKVRQLLDTTDIQGEEFAKVIVQKLKDNKQMGLQ [Y37A]  -0.084 ± 0.067
30. QWIQSKREDIVNQMTEACLNQSLDALLSRDLIMKRDYELVSTKPTRTSKVRQLLDTTDIQGEEFAKVIVQKLKDNKQMGLQ [E35R]  -0.043 ± 0.073
31. QWIQSKREDIVNQMTEACLNQSLDALLSRDLIMPEDYELVSTKPTRTSKVRQLLDTTDIQGEEFAKVIVQKLKDNKQMGLQ [K34P]  0.024 ± 0.066
32. QWIQSKREDIVNQMTEACLNQSLDALLSRDLIMEEDYELVSTKPTRTSKVRQLLDTTDIQGEEFAKVIVQKLKDNKQMGLQ [K34E]  0.024 ± 0.11
33. QWIQSKREDIVNQMTEACLNQSLDALLSRDLIMKKDYELVSTKPTRTSKVRQLLDTTDIQGEEFAKVIVQKLKDNKQMGLQ [E35K]  0.024 ± 0.089
34. QWIQSKREDIVNQMTEACLNQSLDALLSRDLIMKHDYELVSTKPTRTSKVRQLLDTTDIQGEEFAKVIVQKLKDNKQMGLQ [E35H]  0.055 ± 0.17
